What is called Km is the substrate concentration at which the rate is half of its maximum.

Substrate in data set [1]: Nc1ncnc2c1ncn2[C@@H]1O[C@H](COP(=O)(O)OP(=O)(O)OP(=O)(O)O)[C@@H](O)[C@H]1O
Briefly: purified protein. Format: biochemical, Homo sapiens. The following applies: Mg2+.

Substrate in data set [2]: Nc1ncnc2c1ncn2[C@@H]1O[C@H](COP(=O)(O)OP(=O)(O)OP(=O)(O)O)[C@@H](O)[C@H]1O
Briefly: purified protein. The following applies: Mg2+.

B1: Mps1 (Homo sapiens) (protein)
chain: MESEDLSGRELTIDSIMNKVRDIKNKFKNEDLTDELSLNKISADTTDNSGTVNQIMMMANNPEDWLSLLLKLEKNSVPLSDALLNKLIGRYSQAIEALPPDKYGQNESFARIQVRFAELKAIQEPDDARDYFQMARANCKKFAFVHISFAQFELSQGNVKKSKQLLQKAVERGAVPLEMLEIALRNLNLQKKQLLSEEEKKNLSASTVLTAQESFSGSLGHLQNRNNSCDSRGQTTKARFLYGENMPPQDAEIGYRNSLRQTNKTKQSCPFGRVPVNLLNSPDCDVKTDDSVVPCFMKRQTSRSECRDLVVPGSKPSGNDSCELRNLKSVQNSHFKEPLVSDEKSSELIITDSITLKNKTESSLLAKLEETKEYQEPEVPESNQKQWQSKRKSECINQNPAASSNHWQIPELARKVNTEQKHTTFEQPVFSVSKQSPPISTSKWFDPKSICKTPSSNTLDDYMSCFRTPVVKNDFPPACQLSTPYGQPACFQQQQHQILATPLQNLQVLASSSANECISVKGRIYSILKQIGSGGSSKVFQVLNEKKQIYAIKYVNLEEADNQTLDSYRNEIAYLNKLQQHSDKIIRLYDYEITDQYIYMVMECGNIDLNSWLKKKKSIDPWERKSYWKNMLEAVHTIHQHGIVHSDLKPANFLIVDGMLKLIDFGIANQMQPDTTSVVKDSQVGTVNYMPPEAIKDMSSSRENGKSKSKISPKSDVWSLGCILYYMTYGKTPFQQIINQISKLHAIIDPNHEIEFPDIPEKDLQDVLKCCLKRDPKQRISIPELLAHPYVQIQTHPVNQMAKGTTEEMKYVLGQLVGLNSPNSILKAAKTLYEHYSGGESHNSSSSKTFEKKRGKK
For B1, the Km in the data set “purified protein [1]” is 4.9 µM.

B2: Aurora B (Homo sapiens) (protein)
chain: SNVQPTAAPGQKVMENSSGTPDILTRHFTIDDFEIGRPLGKGKFGNVYLAREKKSHFIVALKVLFKSQIEKEGVEHQLRREIEIQAHLHHPNILRLYNYFYDRRRIYLILEYAPRGELYKELQKSCTFDEQRTATIMEELADALMYCHGKKVIHRDIKPENLLLGLKGELKIADFGWSVHAPSLRRKTMCGTLDYLPPEMIEGRMHNEKVDLWCIGVLCYELLVGNPPFESASHNETYRRIVKVDLKFPASVPMGAQDLISKLLRHNPSERLPLAQVSAHPWVRANSRRVLPPSALQSVA
On to B2, for which, in “purified protein [2]”, the Km amounted to 16.5 µM.

For the origin of these results see PMC3102279.
